Like-named read-outs stand apart in the source and are kept apart here.
How the values were obtained:
[1] = target: T1, recombinant soluble trimeric 1918 H1 HA (A/South Carolina/1/1918, wild type) (Influenza A virus A/South …, UniProt Q9WFX3 18-529); assay: ELISA, supernate
[2] = target: T2, recombinant soluble 1968 H3 HA (A/Aichi/2/1968) (Influenza A virus A/Aichi/2/1968 (H3N2), UniProt P03437 17-530); assay: ELISA, supernate
[3] = target: T2, recombinant soluble 1968 H3 HA …; assay: ELISA, recombinant mAb
[4] = target: T1, recombinant soluble trimeric 1918 H1 HA …; assay: ELISA, supernate; remark: listed apart in the source
[5] = target: T2, recombinant soluble 1968 H3 HA …; assay: ELISA, supernate; remark: listed apart in the source
[6] = target: T2, recombinant soluble 1968 H3 HA …; assay: ELISA, unconcentrated supernate
[7] = target: HA of A/New Jersey/11/1976 (H1N1) virus (Influenza A virus (H1N1)); assay: cell-based or functional assay
[8] = target: HA of A/South Carolina/1/1918 (H1N1), wild type, on VLP (Influenza A virus A/South …, UniProt Q9WFX3 18-566); assay: cell-based or functional assay
[9] = target: HA of A/swine/Iowa/15/1930 (H1N1) virus (Influenza A virus (H1N1)); assay: cell-based or functional assay
[10] = target: HA of A/USSR/92/1977 (H1N1) virus (Influenza A virus (H1N1)); assay: cell-based or functional assay
[11] = target: HA of A/California/04/2009 (H1N1) virus (Influenza A virus (H1N1)); assay: cell-based or functional assay
[12] = target: HA of A/Brisbane/59/2007 (H1N1) virus (Influenza A virus (H1N1)); assay: cell-based or functional assay
[13] = target: HA of A/Weiss/1943 (H1N1) virus (Influenza A virus (H1N1)); assay: cell-based or functional assay
[14] = target: HA of A/L3/1947 (H1N1) virus (Influenza A virus (H1N1)); assay: cell-based or functional assay
[15] = target: HA of A/New Caledonia/20/1999 (H1N1) virus (Influenza A virus (H1N1)); assay: cell-based or functional assay
[16] = target: T2, recombinant soluble 1968 H3 HA …; assay: ELISA, supernate; remark: listed apart in the source
[17] = target: T1, recombinant soluble trimeric 1918 H1 HA …; assay: ELISA, supernate; remark: listed apart in the source

B1: mAb 3E22 (antibody, V domains shown)
VH: EVQLVESGAEVKKPGASVKVSCKASGYTFSRYYIHWVRQAPGQELEWMGWINPDSGDTNYAQKFRGRVTMARDTSISTVYMELNSLRYDDTAVYFCARIIWSSSGMDVWGQGTTVTVS
VL: QSALTQPASVSGSPGQSITISCTGTSSDVGSYNLVSWYQQHPGKAPKLMIYEVSKRPSGVSNRFSGSKSGNTASLTISGLQAEDEADYYCHLYVGSSNWVFGGGTKLAVLG
With B1 the OD [1] was 0.741 OD and the OD [2] was 0.379 OD.

B2: mAb 3N6 (recombinant) (antibody, V domains shown)
VH: QVQLQESGPGLVKPSETLSLTCSVSGGSINYYYWSWIRQPPGKGLECIGYISDTGRTYYNPSLRSRVTISVDTSKNQFSLNLTSMTAADTAVYYCARDPTGSRQKNAFDMWGQGTMVTVS
VL: AIQMTQSPSSLSASVGDRVTITCRASQNIRSYLNWYQQKPGKAPNLLIYGTTSLESGVPSRFSGSGSGTDFTLTISSLQPEDFATYYCQQSYHTPQTFGQGTKVEIKR
Work on B2 yielded an OD [3] of 0.069 OD.

B3: mAb 5J8 (antibody, V domains shown)
VH: EVQLVESGPGLVKPSDILSLTCAVSGYSISSNYYWGWIRQPPGKGLEWIGSIYHSGSTYYKPSLESRLGISVDTSKNQFSLKLSFVSAADTAVYYCARHVRSGYPDTAYYFDKWGQGTLVTVS
VL: SYVLTQPPSVSVAPGETARISCGGNNIGTKVLHWYQQTPGQAPVLVVYDDSDRPSGIPERFSGSNSGNTATLTISRVEVGDEADYYCQVWDISTDQAVFGGGTKLTVLG
With B3 the OD [4] was 0.262 OD, the OD [5] was 0.078 OD and the binding result [6] was “no binding”. For the same binder, the HAI activity [7] was 0.32 µg/mL, the HAI activity [8] was 0.04 µg/mL and the HAI activity [9] was 0.04 µg/mL. It also gave a Neut titer [9] of less than 0.025 µg/mL, an HAI activity [10] of 0.63 µg/mL and a Neut titer [10] of 0.2 µg/mL. For the same binder, the HAI activity [11] was 0.09 µg/mL, the Neut titer [11] was 0.0017 µg/mL and the HAI activity [12] was greater than 20 µg/mL. The HAI activity [13] was 5 µg/mL, the Neut titer [13] was 10 µg/mL and the HAI activity [14] was 0.08 µg/mL. For the same binder, the Neut titer [14] was 0.1 µg/mL, the HAI activity [15] was greater than 20 µg/mL and the Neut titer [15] was greater than 20 µg/mL.

B4: mAb 10E15 (antibody, V domains shown)
VH: EVQLLESGGGVVQPGRSLRLSCAASGFTFRTYGMHWVRQAPGKGLEWVAVISHDGNLKYYGGSVKGRFTISRDNSKNALYLQMNSLRVDDTALYYCARGIGITDAFDIRGQGTMVVVS
VL: QSVLTQPPSVSAAPGQKVTISCSGSSSNIGKNYVSWYQQLPGTAPKLLIYDNDKRPSGIPDRFSGSKSGTSATLGITGLQTGDEADYHCGAWDSSLNGGVFGGGTKVTVLG
Work on B4 yielded an OD [16] of 0.074 OD.

B5: mAb 6J24 (antibody, V domains shown)
VH: EVQLVESGGGLVQPGRSLRLSCVGSGFNFDGYAMQWVRQVPGKGLEWVSGISWHSDSTGYADSVRGRFTISRDNAKNSLYLQMDSLRPEDTAFYYCGKSIGHVGGSYRHPIDYWGQGTLVTVS
VL: DIQLTQSPSSLSASVGDRVTITCRASQGITDYLAWYQQKPGTIPKLLIYAASTLQSGVPSRFSGGGYGTDFTLTISSLQPEDVATYYCQKYNSAPLTFGGGTKVEIKR
B5 gave an OD [17] of 0.072 OD.
